Measured values reported in US20200087400A1 (EUREKA THERAPEUTICS, published 2020).

What was measured:
Experiment in all cases: phage ELISA, streptavidin plate, anti-M13-HRP
[1] = target: T1, Bio-P19 member A2E-9 (chain 2 (heavy): C-terminal BirA substrate peptide, biotinylated there by BirA; tag letters not given, left out)
T1 construct: also called biotinylated control peptide A2E-9/HLA-A*02:01 monomer; not shown: BirA substrate peptide (BSP) tag at the C-terminus of the heavy chain
Method in brief: (§1)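 Phage ELISA: individual scFv phage clones from panning pools enriched against PSA146/HLA-A*02:01 were incubated in coated streptavidin plates; binding was detected with HRP anti-M13 and HRP substrate, read at 450 nm. For flow cytometry, T2 cells loaded with peptide and β2M were stained with purified phage clones.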

[2] = target: T2, Bio-P19 member A2E-17 (chain 2: C-terminal BirA substrate peptide (BSP), enzymatically biotinylated; its letters are not printed in the patent and it is left out)
T2 construct: also called biotinylated control peptide A2E-17/HLA-A*02:01 monomer
T2 sequence (b2m, as listed by the source): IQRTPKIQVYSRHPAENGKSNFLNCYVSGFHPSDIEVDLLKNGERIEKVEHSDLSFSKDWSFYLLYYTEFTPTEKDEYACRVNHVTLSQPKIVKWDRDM
Method in brief: as §1

[3] = target: T3, Bio-P19 member A2E-19 (chain 2 carries a C-terminal BirA substrate peptide (BSP), enzymatically biotinylated; the BSP letters are not given in the patent and are left out)
T3 construct: also called biotinylated control peptide A2E-19/HLA-A*02:01 monomer
T3 sequence (beta, as listed by the source): as the sequence (b2m, as listed by the source) above
Method in brief: as §1

[4] = target: T4, Bio-P19 member A2E-21 (chain 2 carries a C-terminal BirA substrate peptide (BSP), enzymatically biotinylated; the BSP letters are not given in the patent and are left out)
T4 construct: also called biotinylated control peptide A2E-21/HLA-A*02:01 monomer
T4 sequence (beta, as listed by the source): as the sequence (b2m, as listed by the source) above
Method in brief: as §1

[5] = target: T5, Bio-P19 member A2E-3 (chain 2 carries a C-terminal BirA substrate peptide (BSP), enzymatically biotinylated; the BSP letters are not given in the patent and are left out)
T5 construct: also called biotinylated control peptide A2E-3/HLA-A*02:01 monomer
T5 sequence (beta, as listed by the source): as the sequence (b2m, as listed by the source) above
Method in brief: as §1

[6] = target: T6, Bio-P19 member A2E-1 (chain 2: C-terminal BirA substrate peptide (BSP), enzymatically biotinylated; its letters are not printed in the patent and it is left out)
T6 construct: also called biotinylated control peptide A2E-1/HLA-A*02:01 monomer
T6 sequence (b2m, as listed by the source): as above
Method in brief: as §1

[7] = target: T7, Bio-P19 member A2E-2 (chain 2 carries a C-terminal BirA substrate peptide (BSP), enzymatically biotinylated; the BSP letters are not given in the patent and are left out)
T7 construct: also called biotinylated control peptide A2E-2/HLA-A*02:01 monomer
T7 sequence (beta, as listed by the source): as the sequence (b2m, as listed by the source) above
Method in brief: as §1

[8] = target: T8, Bio-P19 member A2E-7 (chain 2 (heavy): C-terminal BirA substrate peptide, biotinylated there by BirA; tag letters not given, left out)
T8 construct: also called biotinylated control peptide A2E-7/HLA-A*02:01 monomer; not shown: BirA substrate peptide (BSP) tag at the C-terminus of the heavy chain
T8 sequence (b2m, as listed by the source): as above
Method in brief: as §1

[9] = target: T9, Bio-P19 member A2E-15 (chain 2: C-terminal BirA substrate peptide (BSP), enzymatically biotinylated; its letters are not printed in the patent and it is left out)
T9 construct: also called biotinylated control peptide A2E-15/HLA-A*02:01 monomer
T9 sequence (b2m, as listed by the source): as above
Method in brief: as §1

[10] = target: T10, Bio-P19 member A2E-23 (chain 2 carries a C-terminal BirA substrate peptide (BSP), enzymatically biotinylated; the BSP letters are not given in the patent and are left out)
T10 construct: also called biotinylated control peptide A2E-23/HLA-A*02:01 monomer
T10 sequence (beta, as listed by the source): as the sequence (b2m, as listed by the source) above
Method in brief: as §1

[11] = target: T11, Bio-P19 member A2E-11 (chain 2: C-terminal BirA substrate peptide (BSP), enzymatically biotinylated; its letters are not printed in the patent and it is left out)
T11 construct: also called biotinylated control peptide A2E-11/HLA-A*02:01 monomer
T11 sequence (b2m, as listed by the source): as above
Method in brief: as §1

[12] = target: T12, Bio-P19 member A2E-13 (chain 2: C-terminal BirA substrate peptide (BSP), enzymatically biotinylated; its letters are not printed in the patent and it is left out)
T12 construct: also called biotinylated control peptide A2E-13/HLA-A*02:01 monomer
T12 sequence (b2m, as listed by the source): as above
Method in brief: as §1

[13] = target: T13, Bio-P19 member A2E-10 (chain 2: C-terminal BirA substrate peptide (BSP), enzymatically biotinylated; its letters are not printed in the patent and it is left out)
T13 construct: also called biotinylated control peptide A2E-10/HLA-A*02:01 monomer
T13 sequence (b2m, as listed by the source): as above
Method in brief: as §1

[14] = target: T14, Bio-P19 member A2E-4 (chain 2 carries a C-terminal BirA substrate peptide (BSP), enzymatically biotinylated; the BSP letters are not given in the patent and are left out)
T14 construct: also called biotinylated control peptide A2E-4/HLA-A*02:01 monomer
T14 sequence (beta, as listed by the source): as the sequence (b2m, as listed by the source) above
Method in brief: as §1

[15] = target: T15, Bio-P19 member A2E-6 (chain 2 carries a C-terminal BirA substrate peptide (BSP), enzymatically biotinylated; the BSP letters are not given in the patent and are left out)
T15 construct: also called biotinylated control peptide A2E-6/HLA-A*02:01 monomer
T15 sequence (beta, as listed by the source): as the sequence (b2m, as listed by the source) above
Method in brief: as §1

[16] = target: T16, Bio-P19 member A2E-8 (chain 2 (heavy): C-terminal BirA substrate peptide, biotinylated there by BirA; tag letters not given, left out)
T16 construct: also called biotinylated control peptide A2E-8/HLA-A*02:01 monomer; not shown: BirA substrate peptide (BSP) tag at the C-terminus of the heavy chain
T16 sequence (b2m, as listed by the source): as above
Method in brief: as §1

Measured: binding result

T1 sequence (b2m, as listed by the source): as above

B1: PSA146/HLA-A*02:01-specific scFv phage clone #13 (scFv, V domains shown)
VH: QVQLVQSGAEVKKPGASVKVSCKASGYTFTSYYMHWVRQAPGQGLEWMGGFDPEDGETIYAQKFQGRVTMTEDTSTDTAYMGLSSLRSEDTAVYYCARYSYDYWGQGTLVTVSS
VL: QAVVTQEPSLTVSPGGTVTLTCASSTGAVTSGYYPNWFQQKPGQAPRALIYSTSNKHSWTPARFSGSLLGGKAALTLSGVQPEDEAEYYCLLYYGGAYVFGTGTKVTVLG
no binding: [1] | [2] | [3] | [4] | [5] | [6] | [7] | [8] | [9] | [10] | [11] | [12] | [13] | [14] | [15] | [16]

B2: PSA146/HLA-A*02:01-specific scFv phage clone #14 (scFv, V domains shown)
VH: EVQLVQSGAEVKKPGASVKVSCKASGYTFTGYFMHWVRQAPGQGLEWMGGFDPEDGETIYAQKFQGRVTMTEDTSTDTAYMELSSLRSEDTAVYYCARYSYDLWGQGTLVTVSS
VL: QTVVTQEPSLTVSPGGTVTLTCASSTGAVTSGYYPNWFQQKPGQAPRALIYSTSNKHSWTPARFSGSLLGGKAALTLSGVQPEDEAEYYCLLYYGGAQWVFGGGTKLTVLG
no binding: [1] | [2] | [3] | [4] | [5] | [6] | [7] | [8] | [9] | [10] | [11] | [12] | [13] | [14] | [15] | [16]

B3: PSA146/HLA-A*02:01-specific scFv phage clone #12 (scFv, V domains shown)
VH: QMQLVQSGSEVKKPGASVKVSCKASGYTFTSYGISWVRQAPGQGLEWMGWISAYNGNTDYVQKLQGRVTMTTDTSTNTAYMELGSLGSDDTAVYYCARTNYNKYDIWGQGTLVTVSS
VL: QSVLTQPPSVSGAPGQRVTISCTGSSSNIGAGYDVHWYQQLPGTAPKLLIYGNSNRPSGVPDRFSGSKSGTSASLAITGLQAEDEADYYCQSYDSSLSEVFGTGTKVTVLG
no binding: [1] | [2] | [3] | [4] | [5] | [6] | [7] | [8] | [9] | [10] | [11] | [12] | [13] | [14] | [15] | [16]

B4: PSA146/HLA-A*02:01-specific scFv phage clone #9 (scFv, V domains shown)
VH: QVQLVQSGAEVKKPGASVKVSCKASGYTFTSYGISWVRQAPGQGLEWMGWISAYNGNTNYAQKLQGRVTMTTDTSTSTAYMELRSLRSDDTAVYYCARSSQYYVWDSWGQGTLVTVSS
VL: QSVVTQPPSVSGAPGQRVTISCTGSSSNFGAGYDVHWYQQLPGTAPKLLIYGNSNRPSGVPDRFSGSKSGTSASLAITGLQAEDEADYYCQSYDSSLSGWVFGGGTKLTVLG
no binding: [1] | [2] | [3] | [4] | [5] | [6] | [7] | [8] | [9] | [10] | [11] | [12] | [13] | [14] | [15] | [16]

B5: PSA146/HLA-A*02:01-specific scFv phage clone #10 (scFv, V domains shown)
VH: QVQLVQSGAEVKKPGSSVKVSCKASGGTFSSYAISWVRQAPGQGLEWMGWINPNSGGTNYAQKFQGRVTMTRDTSISTAYMELSRLRSDDTAVYYCARWSYYYFQQFWSLDGWGQGTLVTVSS
VL: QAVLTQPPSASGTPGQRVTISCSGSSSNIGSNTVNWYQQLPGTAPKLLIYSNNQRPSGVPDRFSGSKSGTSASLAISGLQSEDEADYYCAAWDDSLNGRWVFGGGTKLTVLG
no binding: [1] | [2] | [3] | [4] | [5] | [6] | [7] | [8] | [9] | [10] | [11] | [12] | [13] | [14] | [15] | [16]
